Series [1] addresses Mt-PolDom (LigD polymerase domain) (UniProt P9WNV3 1-300). In words: DNase I footprinting; 5 ug protein. To be noted: protein: recombinant; label: 32P 5'-end label.
Series [2] addresses Mt-PolDom (crystal) (UniProt P9WNV3 1-300). The series can be described thus: crystal structure 2.4 A; 10 mM MnCl2. The following applies: protein: recombinant.

B1: 1-nt gapped FP-T/FP-P/FP-D, 5'-P (dsDNA)
DNA 1: GGCAGCTTGGATCTTGTCGAAAAACGTCAACATTCGCCTAGGCTTCGGCAATACTGAGGTCTTGTCGAAAAACGTCAACATTGCGTGGCC
DNA 2: GGCCACGCAATGTTGACGTTTTTCGACAAGACCTCAGTAT
DNA 3: GCCGAAGCCTAGGCGAATGTTGACGTTTTTCGACAAGATCCAAGCTGCC
modifications: 5'-phosphate on FP-D
For the molecule B1, in series [1], the binding result is “binds”.

B2: annealed break T/D (dsDNA)
DNA 1: GCCGCAGATC
DNA 2: GCGGC
modifications: 5'-phosphate on D
For B2, the binding result in series [2] is given as “binds”.

The values above are taken from publication PMC3898472, “Molecular Basis for DNA Double-Strand Break Annealing and Primer Extension by an NHEJ DNA Polymerase”.
